Values quoted from earlier work, collected in publication PMC8698604.
Like-named read-outs stand apart in the source and are kept apart here. Values belong to the substance of their own block, whether it stands above or below them.

Key:
[1] = molecular target: plasminogen (Homo sapiens) (UniProt P00747); assay: fluorescence
[2] = molecular target: plasminogen (Homo sapiens) (UniProt P00747)
plasmin (Homo sapiens) [3] = molecular target: plasmin (Homo sapiens) (UniProt P00747)
t-PA (Homo sapiens) [4] = molecular target: t-PA (Homo sapiens) (UniProt P00750)
Chain of UniProt P00750 (P00750 36-562): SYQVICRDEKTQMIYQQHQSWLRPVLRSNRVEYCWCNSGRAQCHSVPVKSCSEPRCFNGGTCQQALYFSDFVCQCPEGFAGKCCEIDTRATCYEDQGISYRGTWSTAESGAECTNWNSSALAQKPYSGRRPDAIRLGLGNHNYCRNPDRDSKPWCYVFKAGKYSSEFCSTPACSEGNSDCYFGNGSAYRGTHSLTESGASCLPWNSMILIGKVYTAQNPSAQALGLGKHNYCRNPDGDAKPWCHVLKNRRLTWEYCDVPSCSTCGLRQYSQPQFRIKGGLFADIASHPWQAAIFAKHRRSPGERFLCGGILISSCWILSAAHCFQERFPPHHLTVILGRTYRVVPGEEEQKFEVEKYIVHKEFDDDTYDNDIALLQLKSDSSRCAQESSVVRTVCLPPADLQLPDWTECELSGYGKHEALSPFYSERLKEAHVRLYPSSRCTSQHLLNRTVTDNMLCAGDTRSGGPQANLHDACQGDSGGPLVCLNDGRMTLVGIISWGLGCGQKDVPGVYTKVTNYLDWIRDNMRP

plasmin (Homo sapiens) [5] = molecular target: plasmin (Homo sapiens) (UniProt P00747); remark: listed apart in the source
[6] = molecular target: plasminogen (Homo sapiens) (UniProt P00747); remark: listed apart in the source
t-PA (Homo sapiens) [7] = molecular target: t-PA (Homo sapiens) (UniProt P00750); remark: listed apart in the source
plasmin (Homo sapiens) [8] = molecular target: plasmin (Homo sapiens) (UniProt P00747); remark: listed apart in the source
fibrin (Homo sapiens) [9] = molecular target: fibrin (Homo sapiens) (UniProt P02671)
fibrin (Homo sapiens) [10] = molecular target: fibrin (Homo sapiens) (UniProt P02671); remark: listed apart in the source

Kd [1]: 1000 nM
Kd [2]: 110 nM
Kd (plasmin (Homo sapiens) [3]): 75 nM
Kd (t-PA (Homo sapiens) [4]): 680 nM
Substance: AIIt (ANXA2/S100A10) (from UniProt P07355)

Kd (plasmin (Homo sapiens) [5]): 780 nM
Substance: ANXA2 (from UniProt P07355)

Kd [6]: 1810 nM
Kd (t-PA (Homo sapiens) [7]): 450 nM
Kd (plasmin (Homo sapiens) [8]): 360 nM
Substance: S100A10 (from UniProt P60903)

Kd (fibrin (Homo sapiens) [9]): 30000 nM
Kd (fibrin (Homo sapiens) [10]): 300 nM
Substance: plasminogen (from UniProt P00747)
